Results as given in the supplement of paper PMC7877785.
± gives the uncertainty stated by the source.

Experiment: self-splicing fitness, log relative to wild type (ln ratio); higher = more splicing; Tetrahymena group I intron in knt gene, E. coli kanamycin selection, DiMSum; sequences stand for … in CUCUCU…GGAGGGAAAAGUUAUCAGGCAUGCACCUGGUAGCUAGUCUUUAAACCAAUAGAUUGCAUCGGUUUAAAAGGCAAGACCGUCAAAUUGCGGGAAAGGGGUCAACAGCCGUUCAGUACCAAGUCUCAGGGGAAACUUUGAGAUGGCCUUGCAAAGGGUAUGGUAAUAAGCUGACGGACAUGGUCCUAACCACGCAGCCAAGUCCUAAGUCAACAGAUCUUCUGUUGAUAUGGAUGCAGUUCACAGACUAAAUGUCGGUCGGGGAAGAUGUAUUCUUCUCAUAAGAUAUAGUCGGACCUCUCCUUAAUGGGAGCUAGCGGAUGAAGUGAUGCAACACUGGAGCCGCUGGGAACUAAUUUGUAUGCGAAAGUAUAUUGAUUAGUUUUGGAGUACUCGUGGUCG
Summary of the method: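 Fitness was computed with DiMSum as the error-weighted combination of replicate fold changes, kanamycin versus none, each normalised to wild type. The library randomised all eight intron nucleotides of the P1ex region, with the intron placed in the knt kanamycin-resistance gene on pET-22b(+) in E. coli BL21(DE3). Six replicate transformations were grown overnight at 37°C or 30°C on LB agar with or without 25 μg/mL kanamycin, plus 100 μg/mL carbenicillin, 50 μM IPTG and 0.2% rhamnose. Pooled colonies were amplicon-sequenced on an Illumina HiSeq 2500.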

Sequence: AUGCAGCAAUAUUACGCAGU
- self-splicing fitness (ln) (30 °C): -3.23 ± 0.16
- self-splicing fitness (ln) (37 °C): -1.69 ± 0.12

Sequence: UCAGAGCAAUAUUACGAAGG
- self-splicing fitness (ln) (30 °C): -2.15 ± 0.085
- self-splicing fitness (ln) (37 °C): -1.84 ± 0.12

Sequence: CAGAAGCAAUAUUACGGCUU
- self-splicing fitness (ln) (30 °C): -3.46 ± 0.21
- self-splicing fitness (ln) (37 °C): -3.66 ± 0.29

Sequence: GAUCAGCAAUAUUACGAGUU
- self-splicing fitness (ln) (30 °C): -1.26 ± 0.094
- self-splicing fitness (ln) (37 °C): -0.882 ± 0.12

Sequence: UGACAGCAAUAUUACGAUGA
- self-splicing fitness (ln) (30 °C): -0.596 ± 0.068
- self-splicing fitness (ln) (37 °C): -0.119 ± 0.082

Sequence: UUCGAGCAAUAUUACGAAUC
- self-splicing fitness (ln) (37 °C): -2.97 ± 0.4

Sequence: UACUAGCAAUAUUACGCGGU
- self-splicing fitness (ln) (30 °C): -3.43 ± 0.47
- self-splicing fitness (ln) (37 °C): -2.52 ± 0.33

Sequence: UAUUAGCAAUAUUACGACAA
- self-splicing fitness (ln) (30 °C): -0.602 ± 0.17
- self-splicing fitness (ln) (37 °C): -0.127 ± 0.24

Sequence: GUGCAGCAAUAUUACGAUUA
- self-splicing fitness (ln) (30 °C): -1.38 ± 0.13
- self-splicing fitness (ln) (37 °C): -0.611 ± 0.12

Sequence: AAUAAGCAAUAUUACGCUUU
- self-splicing fitness (ln) (30 °C): -3.49 ± 0.21
- self-splicing fitness (ln) (37 °C): -3.26 ± 0.23

Sequence: AUCCAGCAAUAUUACGACUU
- self-splicing fitness (ln) (30 °C): 0.167 ± 0.074
- self-splicing fitness (ln) (37 °C): 0.32 ± 0.086

Sequence: ACAGAGCAAUAUUACGGGCC
- self-splicing fitness (ln) (30 °C): -1.79 ± 0.29

Sequence: AAGUAGCAAUAUUACGCGCC
- self-splicing fitness (ln) (30 °C): -0.381 ± 0.2
- self-splicing fitness (ln) (37 °C): -0.0421 ± 0.23

Sequence: AGCAAGCAAUAUUACGCGUC
- self-splicing fitness (ln) (30 °C): -3.61 ± 0.15
- self-splicing fitness (ln) (37 °C): -3.06 ± 0.24

Sequence: UCUGAGCAAUAUUACGUAGG
- self-splicing fitness (ln) (30 °C): -0.323 ± 0.087
- self-splicing fitness (ln) (37 °C): -0.306 ± 0.13

Sequence: AACGAGCAAUAUUACGAAUG
- self-splicing fitness (ln) (30 °C): -4.03 ± 0.28
- self-splicing fitness (ln) (37 °C): -3.18 ± 0.25

Sequence: GGUUAGCAAUAUUACGCCCG
- self-splicing fitness (ln) (30 °C): -3.15 ± 0.49
- self-splicing fitness (ln) (37 °C): -1.55 ± 0.48

Sequence: UGCUAGCAAUAUUACGCGCG
- self-splicing fitness (ln) (30 °C): -0.603 ± 0.092
- self-splicing fitness (ln) (37 °C): -1.08 ± 0.12

Sequence: AGACAGCAAUAUUACGGGGA
- self-splicing fitness (ln) (30 °C): -3.11 ± 0.17
- self-splicing fitness (ln) (37 °C): -1.82 ± 0.12

Sequence: CCGUAGCAAUAUUACGCCUG
- self-splicing fitness (ln) (30 °C): -0.012 ± 0.085
- self-splicing fitness (ln) (37 °C): -0.0205 ± 0.084

Sequence: AACCAGCAAUAUUACGAGCC
- self-splicing fitness (ln) (30 °C): -2.85 ± 0.17
- self-splicing fitness (ln) (37 °C): -1.72 ± 0.16

Sequence: CAGUAGCAAUAUUACGACUU
- self-splicing fitness (ln) (30 °C): 0.0553 ± 0.058
- self-splicing fitness (ln) (37 °C): 0.35 ± 0.071

Sequence: AGGGAGCAAUAUUACGUGAG
- self-splicing fitness (ln) (30 °C): -3.15 ± 0.26
- self-splicing fitness (ln) (37 °C): -2.56 ± 0.24

Sequence: CCUAAGCAAUAUUACGUGUC
- self-splicing fitness (ln) (30 °C): -3.86 ± 0.27
- self-splicing fitness (ln) (37 °C): -1.54 ± 0.12

Sequence: UGAUAGCAAUAUUACGCAUG
- self-splicing fitness (ln) (30 °C): -1.23 ± 0.078
- self-splicing fitness (ln) (37 °C): -0.48 ± 0.1

Sequence: UGGUAGCAAUAUUACGUGCC
- self-splicing fitness (ln) (30 °C): -1.42 ± 0.21
- self-splicing fitness (ln) (37 °C): -2.45 ± 0.39

Sequence: CUCUAGCAAUAUUACGUGCA
- self-splicing fitness (ln) (30 °C): -2.34 ± 0.43

Sequence: GAAUAGCAAUAUUACGACAG
- self-splicing fitness (ln) (30 °C): -3.2 ± 0.28
- self-splicing fitness (ln) (37 °C): -2.62 ± 0.35

Sequence: GAUGAGCAAUAUUACGCAUU
- self-splicing fitness (ln) (37 °C): -1.96 ± 0.39

Sequence: UACCAGCAAUAUUACGUGUG
- self-splicing fitness (ln) (30 °C): -1.22 ± 0.046
- self-splicing fitness (ln) (37 °C): -0.527 ± 0.059

Sequence: UUCAAGCAAUAUUACGUUAG
- self-splicing fitness (ln) (30 °C): -3.23 ± 0.12
- self-splicing fitness (ln) (37 °C): -1.32 ± 0.089

Sequence: CUUCAGCAAUAUUACGAUUA
- self-splicing fitness (ln) (30 °C): -3.05 ± 0.41
- self-splicing fitness (ln) (37 °C): -1.55 ± 0.22

Sequence: CGGCAGCAAUAUUACGUUUG
- self-splicing fitness (ln) (30 °C): -1.58 ± 0.069
- self-splicing fitness (ln) (37 °C): -0.243 ± 0.079

Sequence: UUCGAGCAAUAUUACGCUGU
- self-splicing fitness (ln) (30 °C): -3.54 ± 0.2
- self-splicing fitness (ln) (37 °C): -2.14 ± 0.21

Sequence: CAAAAGCAAUAUUACGUUGG
- self-splicing fitness (ln) (30 °C): -2.47 ± 0.088
- self-splicing fitness (ln) (37 °C): -1.48 ± 0.1

Sequence: CCACAGCAAUAUUACGCCGA
- self-splicing fitness (ln) (30 °C): -3.67 ± 0.26
- self-splicing fitness (ln) (37 °C): -2.26 ± 0.17

Sequence: UGCAAGCAAUAUUACGUACA
- self-splicing fitness (ln) (30 °C): -0.594 ± 0.062
- self-splicing fitness (ln) (37 °C): 0.366 ± 0.092

Sequence: UCAUAGCAAUAUUACGAAUA
- self-splicing fitness (ln) (30 °C): -2.82 ± 0.28
- self-splicing fitness (ln) (37 °C): -1.04 ± 0.28

Sequence: UCUCAGCAAUAUUACGAGUA
- self-splicing fitness (ln) (30 °C): -1.35 ± 0.066
- self-splicing fitness (ln) (37 °C): -0.132 ± 0.077

Sequence: AAUCAGCAAUAUUACGCUCG
- self-splicing fitness (ln) (30 °C): -0.0659 ± 0.091
- self-splicing fitness (ln) (37 °C): -0.114 ± 0.12

Sequence: AGAGAGCAAUAUUACGUGGU
- self-splicing fitness (ln) (30 °C): -3.49 ± 0.29
- self-splicing fitness (ln) (37 °C): -3.6 ± 0.37

Sequence: GAGCAGCAAUAUUACGUGCG
- self-splicing fitness (ln) (30 °C): -1.65 ± 0.12
- self-splicing fitness (ln) (37 °C): -1.25 ± 0.11

Sequence: CAUAAGCAAUAUUACGCCCA
- self-splicing fitness (ln) (30 °C): -2.14 ± 0.21
- self-splicing fitness (ln) (37 °C): -1.35 ± 0.29

Sequence: CGCCAGCAAUAUUACGAUAG
- self-splicing fitness (ln) (30 °C): 0.428 ± 0.062
- self-splicing fitness (ln) (37 °C): 0.155 ± 0.081

Sequence: CAGAAGCAAUAUUACGGCAC
- self-splicing fitness (ln) (30 °C): -3.44 ± 0.41
- self-splicing fitness (ln) (37 °C): -1.87 ± 0.32

Sequence: AUUGAGCAAUAUUACGGAUA
- self-splicing fitness (ln) (30 °C): -2.15 ± 0.28
- self-splicing fitness (ln) (37 °C): -1.57 ± 0.25

Sequence: AGAAAGCAAUAUUACGCCAA
- self-splicing fitness (ln) (30 °C): -3.75 ± 0.17
- self-splicing fitness (ln) (37 °C): -2.91 ± 0.069

Sequence: GGAUAGCAAUAUUACGUCCA
- self-splicing fitness (ln) (30 °C): -1.4 ± 0.17
- self-splicing fitness (ln) (37 °C): -0.317 ± 0.19
